Five molecules from US20240002497A1 (Merck Sharp & Dohme, published 2024) can be followed below.

Experiment [1] has as its target T1, huNav157chimera14+β1-β2-β3 (human, UniProt Q07699 19-218; O60939 30-215; Q9NY72 23-215).
T1 construct: HEK FlpIn line; also called huNav157 chimera 14-beta1-beta2-beta3; Nav157ch14-β1-β2-β3
Briefly: binding FACS with purified FLAG3-HIS6 tagged ISVDs. The protocol: (§1) Binding of the ISVDs to cell-expressed Nav1.7α was detected via murine anti-Flag (Sigma, catalog #F1804). Briefly, cells were resuspended in FACS buffer (PBS, 10% FBS, NaN₃) and transferred to a 96-well V-bottom plate at 1×10^5 cells/well. Purified FLAG3-tagged ISVD was diluted in FACS buffer and added to the cells for 30 minutes at 4° C. […] Prior to the read-out, the samples were resuspended in 1 μg/mL propidium iodide (Sigma, catalog #P4170) to exclude dead cells. Between each step, the cells were centrifuged for 5 minutes at 200 grams and washed with 100 μL/well FACS buffer.
Crude periplasmic extracts containing ISVDs from phage display selections (as described above) were screened in FACS for binding to huNav1.7α but not to huNav1.5a. […] As used in Table 8, the drawings, and throughout the description, Navβ1, Navβ2, and Navβ3 are human homologs unless specifically identified otherwise.

The target of experiment [2] is T2, huNav1.8α (human, UniProt Q9Y5Y9 1-1956).
T2 construct: also called huNav1.8 (alpha subunit)
Briefly: binding FACS on stable cell lines.

The next experiment has as its target T3, huNav1.5α+β1-β2-β3 (human, UniProt Q14524 1-2016; A5A6L6 19-218; O60939 30-215; Q2KI11 23-215).
T3 construct: in the cell P2A cleaves it into α, β1, β2, β3; also called huNav1.5-beta1-beta2-beta3
Briefly: binding FACS, HEK FlpIn cells. An outline of the steps:
(§2)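 Purified FLAG3-tagged ISVDs incubated with cells (1×10^5 cells/well) in PBS/10% FBS/NaN₃ for 30 minutes at 4° C. Bound ISVD detected via murine anti-Flag by flow cytometry; dead cells excluded with 1 μg/mL propidium iodide. Crude periplasmic extracts were also screened for huNav1.7α binding without huNav1.5a binding.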

The next experiment addresses rhNav1.7α (rhesus monkey, UniProt Q15858 1-1988 (human entry)). Description: cell-based or functional assay.
The target in a further experiment is T4, rhNav1.7α+β1-β2-β3 (rhesus monkey α subunit with human β …).
T4 construct: P2A cleaves it into α, β1, β2, β3; also called rhNav1.7-beta1-beta2-beta3
Briefly: binding FACS, CHO FlpIn cells. Put shortly:
as §2

The target in experiment [3] is T5, huNav1.7α+β1-β2-β3 (human, UniProt Q15858 1-1988; Q07699 19-218; O60939 30-215; Q9NY72 23-215).
T5 construct: 5N11S variant; also called huNav1.7-beta1-beta2-beta3; huNav1.7α+Navβ1-Navβ2-Navβ3
Briefly: binding FACS, CHO FlpIn cells. Put shortly:
as §2

Experiment [4] deals with T6, huNav1.4α (human, UniProt P35499 1-1836).
T6 construct: also called huNav1.4 (alpha subunit)
Description: binding FACS on stable cell lines.

Experiment [5] concerns the target T7, huNav1.2α (human, UniProt Q99250 1-2005).
T7 construct: also called huNav1.2 (alpha subunit)
Briefly: binding FACS on stable cell lines.

For experiment [6], the target named is T8, huNav1.3α (human, UniProt Q9NY46 1-2000).
T8 construct: also called huNav1.3 (alpha subunit)
T8 sequence (Q9NY46 whole entry): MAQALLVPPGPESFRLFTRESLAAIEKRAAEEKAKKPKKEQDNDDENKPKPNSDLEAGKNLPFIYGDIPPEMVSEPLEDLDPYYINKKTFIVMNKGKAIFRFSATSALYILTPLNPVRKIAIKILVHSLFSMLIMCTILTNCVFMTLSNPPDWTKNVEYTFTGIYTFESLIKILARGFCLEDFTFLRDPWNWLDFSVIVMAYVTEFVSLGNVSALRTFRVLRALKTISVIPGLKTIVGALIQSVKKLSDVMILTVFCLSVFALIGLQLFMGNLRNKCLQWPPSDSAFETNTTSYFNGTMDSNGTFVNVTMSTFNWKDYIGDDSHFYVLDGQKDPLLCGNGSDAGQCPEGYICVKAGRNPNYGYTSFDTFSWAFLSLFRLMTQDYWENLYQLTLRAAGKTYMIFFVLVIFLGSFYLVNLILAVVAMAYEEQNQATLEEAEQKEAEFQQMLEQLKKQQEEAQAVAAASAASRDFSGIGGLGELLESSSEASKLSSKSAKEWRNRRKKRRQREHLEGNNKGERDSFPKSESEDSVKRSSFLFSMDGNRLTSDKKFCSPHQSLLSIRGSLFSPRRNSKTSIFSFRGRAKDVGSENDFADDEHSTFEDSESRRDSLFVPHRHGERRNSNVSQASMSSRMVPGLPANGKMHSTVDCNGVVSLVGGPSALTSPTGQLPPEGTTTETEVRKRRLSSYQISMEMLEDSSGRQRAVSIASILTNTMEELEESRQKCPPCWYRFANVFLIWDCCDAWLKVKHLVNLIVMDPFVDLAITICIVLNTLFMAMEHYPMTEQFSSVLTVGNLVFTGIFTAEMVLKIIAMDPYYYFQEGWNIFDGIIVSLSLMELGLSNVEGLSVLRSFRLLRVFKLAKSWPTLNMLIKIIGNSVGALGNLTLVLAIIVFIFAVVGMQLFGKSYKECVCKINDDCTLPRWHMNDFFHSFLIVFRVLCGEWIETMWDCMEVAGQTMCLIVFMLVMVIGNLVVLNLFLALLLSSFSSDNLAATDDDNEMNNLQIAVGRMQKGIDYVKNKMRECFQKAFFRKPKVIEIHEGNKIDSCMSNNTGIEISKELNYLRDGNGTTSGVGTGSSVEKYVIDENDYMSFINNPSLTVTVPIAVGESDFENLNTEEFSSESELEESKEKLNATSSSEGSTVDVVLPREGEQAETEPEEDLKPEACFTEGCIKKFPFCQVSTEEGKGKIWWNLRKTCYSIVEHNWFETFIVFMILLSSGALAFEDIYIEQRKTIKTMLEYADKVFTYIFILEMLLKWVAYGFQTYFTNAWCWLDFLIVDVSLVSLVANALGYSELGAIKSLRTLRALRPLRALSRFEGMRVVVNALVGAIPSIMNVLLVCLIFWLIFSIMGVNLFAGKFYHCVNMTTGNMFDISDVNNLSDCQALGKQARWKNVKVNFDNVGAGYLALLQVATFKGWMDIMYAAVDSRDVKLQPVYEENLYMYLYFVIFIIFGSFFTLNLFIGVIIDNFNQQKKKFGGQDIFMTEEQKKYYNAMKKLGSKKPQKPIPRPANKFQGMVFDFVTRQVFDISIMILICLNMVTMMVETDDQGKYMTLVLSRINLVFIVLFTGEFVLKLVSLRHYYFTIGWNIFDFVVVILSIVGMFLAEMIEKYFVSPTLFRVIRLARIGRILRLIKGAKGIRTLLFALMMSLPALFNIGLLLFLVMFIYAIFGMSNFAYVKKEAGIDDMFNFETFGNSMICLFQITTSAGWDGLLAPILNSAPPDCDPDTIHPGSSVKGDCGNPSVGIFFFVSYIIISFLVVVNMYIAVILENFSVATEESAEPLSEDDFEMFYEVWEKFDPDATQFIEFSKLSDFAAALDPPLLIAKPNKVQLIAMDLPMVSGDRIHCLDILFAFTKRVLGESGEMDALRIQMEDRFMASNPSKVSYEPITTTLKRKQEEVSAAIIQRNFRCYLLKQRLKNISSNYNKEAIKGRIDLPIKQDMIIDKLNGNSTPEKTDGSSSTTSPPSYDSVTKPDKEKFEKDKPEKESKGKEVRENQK
Description: binding FACS on stable cell lines.

Experiment [7] concerns the target T9, huNav1.1α (human, UniProt P35498 1-2009). Briefly: binding FACS on stable cell lines.
Experiment [8] has as its target T10, huNav1.6α (human, UniProt Q9UQD0 1-1980).
T10 construct: also called huNav1.6 (alpha subunit)
Description: binding FACS on stable cell lines.

Experiment [9] concerns the target T5, huNav1.7α+β1-β2-β3. Briefly: binding FACS, HEK FlpIn cells. An outline of the steps:
as §2

Experiment [10] concerns the target T11, huNav1.7α+β1 (human, UniProt Q15858 1-1988; Q07699 19-218).
T11 construct: also called huNav1.7-beta1; HEKa/β1
Description: binding FACS, HEK293 cells. Put shortly:
as §2

The target in experiment [11] is T1, huNav157chimera14+β1-β2-β3. Description: binding FACS, HEK FlpIn cells. An outline of the steps:
as §2

The target in experiment [12] is T12, huNav1.7(N146S, V194I, F276V, R277Q, E281V, V331M, E504D, D507E, S508N, N533S)-β1-β2-β3 (human, UniProt Q15858 1-1988; Q07699 19-218; O60939 30-215; Q9NY72 23-215).
T12 construct: Transiently on HEK293T cells; The text prints V1941 for V194I; also called chimeric variant of huNav1.7α with all DI huNav1.7α-rhNav1.7α polymorphisms
Description: FACS on transiently transfected HEK293T cells. The protocol: as §1
FACS binding studies (as described above) were performed on HEK293T cells transiently transfected with a chimeric variant of huNav1.7α in which all the huNav1.7α-rhNav1.7α polymorphisms of DI are present (N146S, V1941, F276V, R277Q, E281V, V331M, E504D, D507E, S508N, N533S). Replacing the huNav1.7α DI sequence for that of rhNav1.7α is sufficient to abolish the binding of F0103262CO2, F0103265B04, F0103262B06, and F0103265A11 to huNav1.7α, recapitulating the absence of binding on rhNav1.7α (see FIGS. 21A-21B).

In the next experiment the target is T13, huNav1.7α (human, UniProt Q15858 1-1988).
T13 construct: HEK cells expressing the α subunit alone; also called HEKa; HEK huNav1.7α
Briefly: binding FACS, HEKa cells. Put shortly: (§3)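 Cells are first suspended in FACS buffer at 1×10^5 per well. Next, FLAG3-tagged ISVD is added for 30 minutes at 4° C, and binding is then detected with murine anti-Flag. Finally, samples go into 1 μg/mL propidium iodide before flow cytometry.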

Experiment [13] addresses T11, huNav1.7α+β1. Briefly: binding FACS, HEKa/β1 cells. Put shortly:
as §3

Experiment [14] addresses T5, huNav1.7α+β1-β2-β3. Description: binding FACS, HEK FlpIn cells. The source holds these as a separate data set.
Experiment [15] concerns the target T6, huNav1.4α. Briefly: binding FACS on stable huNav1.x paralog HEK293T cell lines.
Experiment [16] has as its target T7, huNav1.2α. The description is as above.
For experiment [17], the target named is T8, huNav1.3α. The description is as above.
Experiment [18] concerns the target T2, huNav1.8α. The experiment is described as above.
The target of a further experiment is T14, huNav1.5α (human, UniProt Q14524 1-2016).
T14 construct: also called huNav1.5 (alpha subunit)
Described as above.

Experiment [19] concerns the target T9, huNav1.1α. The description is as above.
The target of experiment [20] is T10, huNav1.6α. The experiment is described as above.

T10 sequence (Q9UQD0 whole entry): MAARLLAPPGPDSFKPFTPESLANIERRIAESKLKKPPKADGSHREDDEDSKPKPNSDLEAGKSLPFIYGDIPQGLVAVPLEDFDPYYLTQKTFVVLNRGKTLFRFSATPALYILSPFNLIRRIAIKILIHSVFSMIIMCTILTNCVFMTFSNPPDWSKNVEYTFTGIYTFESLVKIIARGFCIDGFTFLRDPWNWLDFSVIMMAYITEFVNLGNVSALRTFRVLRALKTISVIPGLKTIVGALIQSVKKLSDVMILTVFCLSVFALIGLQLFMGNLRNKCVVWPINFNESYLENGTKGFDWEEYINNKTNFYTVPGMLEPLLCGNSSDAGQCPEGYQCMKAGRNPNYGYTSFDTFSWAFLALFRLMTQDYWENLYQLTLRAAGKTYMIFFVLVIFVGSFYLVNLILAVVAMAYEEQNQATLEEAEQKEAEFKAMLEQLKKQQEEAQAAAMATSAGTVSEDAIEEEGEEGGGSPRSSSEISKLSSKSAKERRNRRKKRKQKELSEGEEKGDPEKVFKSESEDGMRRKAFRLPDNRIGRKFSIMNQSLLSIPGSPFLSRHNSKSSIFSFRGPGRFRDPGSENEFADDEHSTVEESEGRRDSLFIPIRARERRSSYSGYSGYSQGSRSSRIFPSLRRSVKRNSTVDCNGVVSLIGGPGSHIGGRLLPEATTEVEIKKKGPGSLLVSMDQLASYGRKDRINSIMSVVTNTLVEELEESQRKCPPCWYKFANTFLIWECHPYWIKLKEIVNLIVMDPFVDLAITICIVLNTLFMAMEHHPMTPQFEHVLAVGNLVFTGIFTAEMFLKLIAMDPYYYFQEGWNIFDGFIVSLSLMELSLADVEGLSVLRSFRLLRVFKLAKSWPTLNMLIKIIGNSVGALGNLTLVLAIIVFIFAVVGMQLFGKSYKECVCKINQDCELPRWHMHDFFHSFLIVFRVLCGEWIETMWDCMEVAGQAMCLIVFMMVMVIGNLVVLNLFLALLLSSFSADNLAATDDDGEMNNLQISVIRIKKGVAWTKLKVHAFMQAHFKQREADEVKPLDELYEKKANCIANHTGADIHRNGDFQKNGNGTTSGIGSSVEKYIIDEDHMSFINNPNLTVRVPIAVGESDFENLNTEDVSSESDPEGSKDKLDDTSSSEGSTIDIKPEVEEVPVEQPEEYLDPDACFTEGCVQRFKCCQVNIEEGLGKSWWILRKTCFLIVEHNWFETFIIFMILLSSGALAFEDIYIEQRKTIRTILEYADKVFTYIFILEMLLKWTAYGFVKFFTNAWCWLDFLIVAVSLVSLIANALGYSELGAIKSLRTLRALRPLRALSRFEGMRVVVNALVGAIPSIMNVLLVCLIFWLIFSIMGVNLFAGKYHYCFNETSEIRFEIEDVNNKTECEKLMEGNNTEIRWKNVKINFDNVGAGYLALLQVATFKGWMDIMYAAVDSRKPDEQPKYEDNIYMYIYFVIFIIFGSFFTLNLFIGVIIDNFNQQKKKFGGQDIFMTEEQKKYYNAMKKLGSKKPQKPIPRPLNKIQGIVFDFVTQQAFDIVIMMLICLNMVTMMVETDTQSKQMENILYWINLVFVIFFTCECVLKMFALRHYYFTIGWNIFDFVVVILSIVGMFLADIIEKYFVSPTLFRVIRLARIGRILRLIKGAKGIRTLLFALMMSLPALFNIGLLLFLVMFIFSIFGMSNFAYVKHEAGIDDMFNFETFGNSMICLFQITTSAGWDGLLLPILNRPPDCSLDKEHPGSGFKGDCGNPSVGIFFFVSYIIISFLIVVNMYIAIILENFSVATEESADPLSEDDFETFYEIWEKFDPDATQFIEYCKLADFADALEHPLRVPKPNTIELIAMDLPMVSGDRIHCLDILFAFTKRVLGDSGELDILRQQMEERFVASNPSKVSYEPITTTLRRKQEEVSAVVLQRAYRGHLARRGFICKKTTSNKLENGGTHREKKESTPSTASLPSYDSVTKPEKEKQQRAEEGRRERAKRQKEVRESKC

B1: F0103387G04 (parental)-FLAG-HIS6 (VHH)
VHH: EVQLVESGGGLAQPGGSLRLSCAASGPVFNINKMAWYRRAPGKQRELVASVTPTGSISYTDSVKGRFTISRDGSKRWSLQMNSLTPEDTAVYYCNALLQPDSYSNTRTYWGQGTLVTVSS
notes: also called F01033387G04
As for B1, the values for the binding result (in experiment [1]; with huNav1.8α [2]; in the experiment with huNav1.5α+β1-β2-β3) were “binds”, “no binding” and “no binding”, respectively. The “2-pulse IC50 [M], P1” value in the experiment with rhNav1.7α came to 7e-06 M. Further, in the experiment with rhNav1.7α, the “2-pulse IC50 [M], P2” value turned out to be 3e-06 M.

B2: F0103362B08 (parental)-FLAG-HIS6 (VHH)
VHH: EVQLVESGGGLVQAGGSLRLSCAASVRPFSTSAMGWFRQAPEKEREAVAGILWNGIVTYYADSVKGRFTISRDNAKNEVYLQMNKLKPEDTAVYYCALDRDYGGRSFSAYEYEYWGQGTLVTVSS
For B2, the binding result is “binds” in experiment [1]; “no binding” with rhNav1.7α+β1-β2-β3; “no binding” in the experiment with huNav1.4α [4]; “no binding” with huNav1.2α [5]; “no binding” with huNav1.3α [6]; “no binding” with huNav1.8α [2]. Besides, the binding result in the experiment with huNav1.1α [7], in the experiment with huNav1.6α [8] and in the experiment with huNav1.5α+β1-β2-β3 was “no binding” in each case. For the same molecule, the concentration for a half-maximal effect (EC50) with huNav1.7α+β1-β2-β3 [3] came out at 110 nM; with huNav1.7α+β1-β2-β3 [9] it was 42 nM; in the experiment with huNav1.7α+β1 [10], 59 nM.

B3: F0103262B06 (parental)-FLAG-HIS6 (VHH)
VHH: EVQLVESGGGLVQPGGSLRLSCAGSTRTFSTYAMGWFRQAPGREREFVAHINFSGSSTRYADSVKGRFTISRDNAKNMGYLQMNSLKPEDTAVYYCAARWVAGPPRYDYEYWGQGTLVTVSS
Consider B3, for which the binding result with rhNav1.7α+β1-β2-β3, in the experiment with huNav1.4α [4], in the experiment with huNav1.2α [5], with huNav1.3α [6], with huNav1.8α [2] and with huNav1.1α [7] was “no binding” throughout. In addition, the binding result is given as “no binding” with huNav1.6α [8], “no binding” with huNav1.5α+β1-β2-β3 and “no binding (tested: 1 µM)” in experiment [12]. In addition, the EC50 was determined as 19 nM in the experiment with huNav1.7α+β1-β2-β3 [3], 16 nM in experiment [11], 25 nM in the experiment with huNav1.7α+β1-β2-β3 [9] and 20 nM in the experiment with huNav1.7α+β1 [10].

B4: F0103265A11 (parental)-FLAG-HIS6 (VHH)
VHH: EVQLVESGGGLVQPGGSLRLSCAASGMLFNANTQGWYRQAPGKQRELVAFIFSGGYTNYVDSVKGRFTISRDNAKRTMYLQMNSLKPEDSAIYYCSLSRYLGQGTLVTVSS
notes: also called F01033265A11
B4: the binding result in the experiment with huNav1.7α, with rhNav1.7α+β1-β2-β3, in the experiment with huNav1.4α [4], with huNav1.2α [5], with huNav1.3α [6] and with huNav1.8α [2] was “no binding” throughout. The binding result is “no binding” in the experiment with huNav1.1α [7], “no binding” with huNav1.6α [8], “no binding” in the experiment with huNav1.5α+β1-β2-β3 and “no binding (tested: 1 µM)” in experiment [12]. The 50% effective concentration (EC50) with huNav1.7α+β1-β2-β3 [3] was 66 nM; in the experiment with huNav1.7α+β1 [13], 11 nM; with huNav1.7α+β1-β2-β3 [14], 77 nM; in [11], 34 nM; with huNav1.7α+β1-β2-β3 [9], 37 nM; in the experiment with huNav1.7α+β1 [10], 8.4 nM. The “Bmax relative to '535” value in the experiment with huNav1.7α+β1 [13] was found to be 34%.

B5: F0103464B09 (parental)-FLAG-HIS6 (VHH)
VHH: EVQLVESGGGLVQPGGSLRLSCATTSRAFIRDVFTGWYRRVPGKERELVARIYNGGNTNYADFAKGRFSISRDNAKKMVTLRMSNLKPEDTGVYYCLFSGTINTGREYRSGDYWGQGTLVTVSS
notes: also called F103464B09
As to B5, the binding result in experiment [1] is reported as “binds”; in the experiment with huNav1.4α [15], “no binding”; with huNav1.2α [16] it was “no binding”; in the experiment with huNav1.3α [17], “no binding”; in the experiment with huNav1.8α [18] it was “no binding”; with huNav1.5α it was “no binding”. In addition, the binding result with huNav1.1α [19], with huNav1.6α [20] and with huNav1.5α+β1-β2-β3 was “no binding” throughout. Moreover, the EC50 with rhNav1.7α+β1-β2-β3 came out at 27 nM; with huNav1.7α+β1-β2-β3 [3], 4.1 nM; in the experiment with huNav1.7α+β1 [10] it was 4.1 nM.
